ChEMBL document CHEMBL5252635, “The Mycobacterium tuberculosis mycothiol S-transferase is divalent metal-dependent for mycothiol binding and transfer” (2023)

Tests used:
[1] = substrate: CC(=O)N[C@@H](CS)C(=O)N[C@H]1[C@@H](O[C@@H]2[C@H](O)[C@H](O)[C@@H](O)[C@H](O)[C@H]2O)O[C@H](CO)[C@@H](O)[C@@H]1O; details: Mycobacterium tuberculosis
Description: Binding affinity to Mycobacterium tuberculosis MST assessed as Km by differential scanning fluorimetry method

[2] = substrate: CC(=O)N[C@@H](CS)C(=O)N[C@H]1[C@@H](O[C@@H]2[C@H](O)[C@H](O)[C@@H](O)[C@H](O)[C@H]2O)O[C@H](CO)[C@@H](O)[C@@H]1O; details: Mycobacterium tuberculosis; remark: listed apart in the source
Description: Binding affinity to Mycobacterium tuberculosis MST assessed as Km in presence of zinc

B1: Conserved protein (Mycobacterium tuberculosis), O53728 (protein)
chain: MASTDAAAQELLRDAFTRLIEHVDELTDGLTDQLACYRPTPSANSIAWLLWHSARVQDIQVAHVAGVEEVWTRDGWVDRFGLDLPRHDTGYGHRPEDVAKVRAPADLLSGYYHAVHKLTLEYIAGMTADELSRVVDTSWNPPVTVSARLVSIVDDCAQHLGQAAYLRGIAR
B1 showed a Km [1] of 18.4 µM and a Km [2] of 9.8 µM.
